Results taken from patent US20100081620.

Target: T1, Dabcyl-LAQAHomoPheRSC(Fluorescein)-NH2
T1 chain: LAQAFRSC
Test: enzyme kinetics, initial velocities fitted to a pure competitive two-site model

B1: Human ADAM10 protease containing the catalytic/disintegrin domains (protein)
chain: TTSAEKNTCQLYIQTDHLFFKYYGTREAVIAQISSHVKAIDTIYQTTDFSGIRNISFMVKRIRINTTADEKDPTNPFRFPNIGVEKFLELNSEQNHDDYCLAYVFTDRDFDDGVLGLAWVGAPSGSSGGICEKSKLYSDGKKKSLNTGIITVQNYGSHVPPKVSHITFAHEVGHNFGSPHDSGTECTPGESKNLGQKENGNYIMYARATSGDKLNNNKFSLCSIRNISQVLEKKRNNCFVESGQPICGNGMVEQGEECDCGYSDQCKDECCFDANQPEGRKCKLKPGKQCSPSQGPCCTAQCAFKSKSEKCRDDSDCAREGICNGFTALCPASDPKPNFTDCNRHTQVCINGQCAGSICEKYGLEECTCASSDGKDDKELCHVCCMKKMDPSTCASTGSVQWSRHFSGRTITLQPGSPCNDFRGYCDVFMRCRLVDADGPLARLKKAIFSPELYENIAE
How did the “Ks (binding constant for substrate)” value turn out when B1 was run?
Its value is “the binding constant, Ks for substrate was 16±4.6 µM”.
